This is an account of results in the nanobody polyreactivity screen of Harvey et al. (2022).

This series can be described thus: yeast display, Sf9 membrane polyspecificity reagent, FACS + sequencing; frameworks hold sequencing errors. The procedure, abridged: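 Using colony PCR, genes from sorted yeast display clones were amplified, then sequenced on MiSeq at 2 × 250 and filtered by CDR length. The clones had been stained with 10% biotinylated, detergent-solubilized Sf9 membrane reagent for 1 hour at 4 °C and sorted by FACS into low and high (top ~1%) gates on anti-HA and streptavidin fluorescence. Polyreactivity labels come from the gate of origin.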
In the case of “QVQLVESGGVLVQAGGSLRLSCAASGSTIRLYAMGWYRQAPGKERELVAAIRSGGNTNYADSVKGRFTISRDNAKNSVYLQMKSLKREDTAVYYCNGFCAQLPVPNYDYWGQGPQVTVSS”, the “polyreactivity (PSR sort gate)” value is “high polyreactivity”.

For the sequence “QVQLVESGGVLVQAGGSLRLSCAATGSIINRYAMGWYRQAPRKERELVAAISSTGSTYYADSVKGRFTISRDNAKNTVYLQLNSLKPEDTAVYYCNADATLDWLRVDSYVYWGQGTQVTVSS”, the “polyreactivity (PSR sort gate)” value is on record as “low polyreactivity”.

As for “QVQLVESGGVLVQAGGSLRLSCADSGRTFWYYAMGWYRQAPGKEREWVASISASGGSTFYADSVKGRFTISRDNAKNTVSLQMNSLKPEDTAVYYRAAKNAVWRRYEYWGQGTQVTVSS”, the “polyreactivity (PSR sort gate)” value was “high polyreactivity”.

With “QVQLVESGGVLVQAGGSLRLSCASSLTISYRYAMGWYRTAPGKERELVAAITSGGGTTYYADSVKGRFTISRDNAKNTVYLQMNSMKPEDTAVYYCAKPRARQAFEYWGQGTQVTVSS”, the “polyreactivity (PSR sort gate)” value is “high polyreactivity”.

For “QVQLVESGGVLVQALGSLRLSCAASVITIDNYVMGWYRQAPGKERELVAAISIGGGTYYADSVKGRFTISRDNAKNTVYLQMNSRKPEDSAVYYCKARSDVSYWWGGYWGQGTQVTVSS”, the “polyreactivity (PSR sort gate)” value is reported as “low polyreactivity”.

Regarding “QVQLVESGGVLVQARGILRLICAASGSTFSFNDMGWYRQAPGKERELVAAISRGDNTYYADSVKGRFTISRDNAKNTVYLQMNSLKPDDTSVYYCAADYTYGPPYGYNYWGQGTQVTVSS”, the “polyreactivity (PSR sort gate)” value is reported as “low polyreactivity”.

In the case of “QVQLVESGGVLVQAVGSLRLSCAASGSIFRLYALGWYREARGKEREFVATITWSGGSTSYADSVKGRFTISRDNAKNTVYLQMNSLKPEDTAVYYCAAKRRYWLYDWGQGTQVTVSS”, the “polyreactivity (PSR sort gate)” value was “high polyreactivity”.

With “QVQLVESGGVLVQGRGSLRLSCDASGFTYYTNDMGWYRQAPWKERELVAAINSGGSTKYADSVKGRFPISRDNAKNTVYEQMNSLKPEETAVYYCNRDDNRKHSFGSVGYDYWGQGHQVTVSS”, the “polyreactivity (PSR sort gate)” value was “low polyreactivity”.

Take “QVQLVESGGWLVQAGGSLRLSCAASGFIFYRYAMGWYRPAPGKERELDAAISGSGGRTYYADSVKGRFTISRDNAKNTVYLQMNSLKPEDTAVYYCAADKQAYVTDDYWGQGTQVTVSS”: the “polyreactivity (PSR sort gate)” value was “high polyreactivity”.

On to “QVQLVESGGWLVQAGGSLRLSCAASGSIFTINTMGWYRQARGKERELVAAITGSGGITYYADSVKGRFTISRDNAKNTVYLQMNSLNPVDTAVYYCAAVVYGTVRRVGWYYVGEGYDYWGQGTQVTVSS”, for which the “polyreactivity (PSR sort gate)” value is reported as “low polyreactivity”.

In the case of “QVQLVESGLGLVKAGGSLRLSCAASGNTFDHYVMVWSRQAPGKEPELVASITSGGSTNYADSVKGRFTISRDNAKNTVYLQMNSLKPEDTAVYYCAVSLSYWYEAFTTRIDYYYWGQGTQVTLSS”, the “polyreactivity (PSR sort gate)” value is on record as “high polyreactivity”.

For the sequence “QVQLVESGLGLVQAGRSLRLSCASSGRIFNYYAMVWYRQAPGKERELVAGINWSGTRTYYADSVKGRFTISRDNAKNTVYLQMNSLKPEDTAVYYCNAGRTWRAFTGDEYWGQGTQVSVSS”, the “polyreactivity (PSR sort gate)” value is listed as “high polyreactivity”.

For “QVQLVESGRGIVQAGGSLRLSCAASGRIFRVNAMGWYRQAPGKERELVATISYSGGSTYADSVKGRFTISRDNAKNTVYLQMNSLKPEDTAVYYCAARPYYRYYRYPYGYWGQGTQVTVSS”, the “polyreactivity (PSR sort gate)” value is on record as “high polyreactivity”.

Consider “QVQLVESGRGLFQAGGSLRLSCAASGRIFRYYAMGWSRQATGKERELVAAISGSGGSTYYAASVKGRFTISGDNAKNTVYLLMNSLKPEDNAVYYCNALYRIASGEGDLWGQGTQVTVSS”, for which the “polyreactivity (PSR sort gate)” value was “low polyreactivity”.

With “QVQLVESGRGLFQAGRSLRISCAASGSIFSYNTMGWYREAPGKERELVASISSGGRTYYADSVKGRFTISRDNAKNTVYLQMNSLKPVDTAVYDCARVPYAYLPYKPFQQYSYDYWGQGTQVTVSS”, the “polyreactivity (PSR sort gate)” value was “high polyreactivity”.

Consider “QVQLVESGRGLVHAGGSLLLSCAASGSTFGWYAMGRFIQARGKEREFVAAISWSGTSTYYADSVKGRFTISRDNAKNTFDLQMNSLKPEDTAVYYCASRWVVFTEREDYWGQGTQVTVSS”, for which the “polyreactivity (PSR sort gate)” value is listed as “low polyreactivity”.
